Measured values reported in paper PMC3410853 (PLoS Pathogens, 2012).

T1: SA-Fc fusion protein (bivalent SA-Fc variant; TGEV S residues 481 to 650) (Transmissible gastroenteritis virus …, strain)
T1 construct: not shown: HA, N-terminal, kept; Fc (human IgG1), C-terminal, kept
T1 chain: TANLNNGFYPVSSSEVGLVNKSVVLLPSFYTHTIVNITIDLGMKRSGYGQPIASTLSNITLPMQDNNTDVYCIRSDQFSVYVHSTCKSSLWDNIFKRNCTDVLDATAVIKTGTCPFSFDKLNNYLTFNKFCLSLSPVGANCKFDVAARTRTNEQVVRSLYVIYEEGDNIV

B1: TGEV-neutralizing monoclonal antibody 1AF10 (site A, subsite Ac) (antibody, V domains shown)
VH: QVQLQQSGPELVKPGASVKISCKASGYAFSSSWMNWVKQRPGQGLEWIGRIYPGDGETNYSEKFKGKATLTADKSSSTAYMHLSSLTSVDSAVYFCARGGYRYDPYYAMDYWGQGTSVTVSS
VL: DILLTQSPAILSVSPGERVSLSCRASQSIGTSIHWYQQRTNGSPRPLIKYASESISGIPSRFSGSGSGTDFTLNINSVESEDIADYFCQQTDSWPTTFGAGTKLELK
notes: also called 1AF10 mAb; mAb 1AF10; source: hybridoma cells; purified mAb or hybridoma supernatant; copies: 2 + 2
B2: engineered soluble pAPN (ectodomain, residues 36 to 963) (domain or fragment)
chain: EKNKNAEHVPQAPTSPTITTTAAITLDQSKPWNRYRLPTTLLPDSYNVTLRPYLTPNADGLYIFKGKSIVRLLCQEPTDVIIIHSKKLNYTTQGHMVVLRGVGDSQVPEIDRTELVELTEYLVVHLKGSLQPGHMYEMESEFQGELADDLAGFYRSEYMEGNVKKVLATTQMQSTDARKSFPCFDEPAMKATFNITLIHPNNLTALSNMPPKGSSTPLAEDPNWSVTEFETTPVMSTYLLAYIVSEFQSVNETAQNGVLIRIWARPNAIAEGHGMYALNVTGPILNFFANHYNTSYPLPKSDQIALPDFNAGAMENWGLVTYRENALLFDPQSSSISNKERVVTVIAHELAHQWFGNLVTLAWWNDLWLNEGFASYVEYLGADHAEPTWNLKDLIVPGDVYRVMAVDALASSHPLTTPAEEVNTPAQISEMFDSISYSKGASVIRMLSNFLTEDLFKEGLASYLHAFAYQNTTYLDLWEHLQKAVDAQTSIRLPDTVRAIMDRWTLQMGFPVITVDTKTGNISQKHFLLDSESNVTRSSAFDYLWIVPISSIKNGVMQDHYWLRDVSQAQNDLFKTASDDWVLLNVNVTGYFQVNYDEDNWRMIQHQLQTNLSVIPVINRAQVIYDSFNLATAHMVPVTLALDNTLFLNGEKEYMPWQAALSSLSYFSLMFDRSEVYGPMKKYLRKQVEPLFQHFETLTKNWTERPENLMDQYSEINAISTACSNGLPQCENLAKTLFDQWMSDPENNPIHPNLRSTIYCNAIAQGGQDQWDFAWGQLQQAQLVNEADKLRSALACSNEVWLLNRYLGYTLNPDLIRKQDATSTINSIASNVIGQPLAWDFVQSNWKKLFQDYGGGSFSFSNLIQGVTRRFSSEFELQQLEQFKKNNMDVGFGSGTRALEQALEKTKANIKWVKENKEVVLNWFIEHS

What was measured:
[1] = molecular target: SA-Fc fusion protein (bivalent SA-Fc variant; TGEV S residues 481 to 650); assay: flow cytometry on cells (FACS, percentage of stained cells); conditions: transiently transfected 293T cells expressing similar amounts of HA-tagged pAPN proteins; parent: est. 100; read off a plot
[2] = molecular target: porcine aminopeptidase N (pAPN) on the surface of BHK-pAPN cells (UniProt P15145); assay: as above; conditions: same concentration of wild type and mutant SA-Fc proteins, parent: est. 100, read off a plot
[3] = molecular target: T1, SA-Fc fusion protein (bivalent SA-Fc …); assay: ELISA
[4] = molecular target: the molecule itself; assay: SEC; soluble pAPN ectodomain on Superdex 200 16/60, HEPES-saline buffer pH 7.5

Molecule | percent of parent [1] [%] | percent of parent [2] [%] | further results
recombinant membrane bound pAPN with an HA tag at the C-terminal end (from UniProt P15145) N736A | 3 |  | 
SA-Fc fusion protein (bivalent SA-Fc variant; TGEV S residues 481 to 650) V617Ngly |  | 105 | 
SA-Fc fusion protein (bivalent SA-Fc variant; TGEV S residues 481 to 650) N632A |  | 15 | 
recombinant membrane bound pAPN with an HA tag at the C-terminal end (from UniProt P15145) T738V | 3 |  | 
B1 |  |  | binding result [3]: binds
B2 |  |  | stoichiometry N [4]: 2
